From a protein production outcome set (Wang et al. 2014)

Assay: label from the status in PepcDB records

Protein production, not failed:
MDVFSEYLAGIADPFHRERTEEVLTWIKNKYPNLHTEIKWNQPMFTDHGTFIIGFSVSKKHLAVAPEKVTIAHVEDDIVKAGYDYTEQLIRIPWNGPVDYTLLEKMIEFNILDKADCSTFWRK
MDVSLPCIKIQVQTRYIEEQSNPEYQRFVFAYLITIKNLSSQTVQLMSRRWLITDADGKQTVVEGDGVVGEQPRIKANDEYTYSSGTALDTPVGVMQGQYLMIDEQGESFTVEIEPFRLAVPHVLN
MDWDDEYSHNSFDLHCLLNSFPGDLEFEQIFSDIDEKIEQNAASIKHCIKEIQSEINKQCPGVQLQTTTDCFEWLTNYNYSTSESSFISHGDLIKFFKTLQDLLKNEQNQEEMTLDLLWDLSCHSSVSFPSTLSGTSFHFLSRTSLHSVEDNSSMDVKSMWDDIRLHLRRFLVSKLQSHNEINNSQQKILLKKQCLQQLLFLYPESEVIIKYQNIQNKLLANLLWNCFPSYNRDSNLDVIAHGYQSTMLKLYSVIKEDFNTLCEILAPSSMVKFIKETYLDTVTEEMAKFLENFCELQFRENAVRVVKTSKSSSKHRGAVHALG
MDYNKTAKDILKLLGGEKNVMSAAHCATRLRLVLKNEKEARTKEIEKLDGVKGVFSSSGQYQIIIGQGSVNKVYKAFVEGTGISESSLSDTKKAAMKNM
MEAARSMTFSECAALYIKAHRSSWKNTKHADQWTNTIKTYCGPVIGPLSVQDVDTKLIMKVLDPIWEQKPETASRLRGRIESVLDWATVRGYREGDNPARWRGYLEHHHHHH
MEALKRKIEEEGVVLSDQVLKVDSFLNHQIDPLLMQRIGDEFASRFAKDGITKIVTIESSGIAPAVMTGLKLGVPVVFARKHKSLTLTDNLLTASVYSFTKQTESQIAVSGTHLSDQDHVLIIDDFLANGQAAHGLVSIVKQAGASIAGIGIVIEKSFQPGRDELVKLGYRVESLARIQSLEEGKVSFVQEVHS
MEANTSSSGTVTGQRFAERRRSLPPGAELRQRLLKQLKELCDQIGKAYSTLVQKAALVIEPADQAVSLEPDTQRQATCITNLSDEGELWTTVYELNLGVQNLLMFIEDIRLLLLTQAQVPGPSVEENGLKTAGKGGCSPTELEGARFSDRLSSSNTHRFLEQLWDRYTP
MEASMERFDNAPETALAWHRQGLGAALATVVETWGSAPRRVGAQLVIGGDGRIEGSVSGGCVEGAVIVEALEALEEGQARLLEFGVSDEDAFAVGLACGGTIRVLVEPVGQVLSEVMLAELVAARASRQALAYVVDTARGTRALVRDAYPERMRMDRSGFDEDGRTFVAVHNPPLRLIVVGAVHIAQALVPMARIAGYDPVVIDPREAFASDARFPGETILHDWPDEAVAKLGLDARTALVLLTHDPKLDDPALEAALAADVFYIGALGSTRTHAKRVARMQEAGFTEAQIGRIHGPVGLDIGAAGPAEIAVAILAQMTAVLRGRA
MEAVIFDMDGVLMDTEPLYFEAYRRVAESYGKPYTEDLHRRIMGVPEREGLPILMEALEIKDSLENFKKRVHEEKKRVFSELLKENPGVREALEFVKSKRIKLALATSTPQREALERLRRLDLEKYFDVMVFGDQVKNGKPDPEIYLLVLERLNVVPEKVVVFEDSKSGVEAAKSAGIERIYGVVHSLNDGKALLEAGAVALVKPEEILNVLKEVL
MECRPLCIDDLELVCRHREAMFREAGRDALTLAAMQDPFRDWLLPRLADGSYFGWVMEEGGAPLAGIGLMVIEWPPHPSHPLQDKRGYILNLYVDPSHRERGIGQALMNRAEAEFAERGIAFAVLHATEMGQPLYARMGWSPTTEMSKPIAG
MEDERIKLLFKEKALEILMTIYYESLGGNDVYIQYIASKVNSPHSYVWLIIKKFEEAKMVECELEGRTKIIRLTDKGQKIAQQIKSIIDIMENDT

Protein production, failed:
MDTSTNLDIGAQLIVEECPSTYSLTGMPDIKIEHPLDPNSEEGSAQGVAMGMKFILPNRFDMNVCSRFVKSLNEEDSKNIQDQVNSDLEVASVLFKAECNIHTSPSPGIQVRHVYTPSTTKHFSPIKQSTTLTNKHRGNEVSTTPLLANSLSVHQLAAQGEMLYLATRIEQENVINHTDEEGFTPLMWAAAHGQIAVVEFLLQNGADPQLLGKGRESALSLACSKGYTDIVKMLLDCGVDVNEYDWNGGTPLLYAVHGNHVKCVKMLLESGADPTIETDSGYNSMDLAVALGYRSVQQVIESHLLKLLQNIKE
MDTVVLVLMLLTAFNFLLKQTFWKLIAVGIITAICAVFAGLMWPYAIEQSKTQIANWLSNQPLMLDTSVLLSVEVCIQMAYAMLAVHVANDYPVKPRMILMYRFLRWFPGLLIFPVLFSGLVYLIFAFPGTSFQTIAWSYAAFILAAIPCGRFILLYLLPEKELRLELFFLTNALVAVLGIVATVNGKTSAAGVSEIDWKALTGVIVIALAGGILGLLWWNIRNRNKEKSVKQ
MDVPTPPPAEIYLAIQLPNPLSILVNYLPVSVTPIETLRGLVSTLEPTAINMDEFMTWPDFVLPETPFRTYFTLLLERGARPAIYLEGVRLACNFITVAHGLTMLSSISPIDAYACFSHGLFLTATGNGREVEAVNATFWDLVPSFEAANTVGELVMYHISRLHAEGTRLWNRSWRFVVSPDCLGRCSYGACCRNCFFYWYARELCIFY
MDVQIHPMIIELAAFQAAKCGSVVGFGMVPSRNPSIKAASFFGIMVVTRSHVGESKDKGKEVEIAEPIESLILWLEELVAKQNKAMMRPMSDMMGAISRSTSHKLHDEQSTRDWSLPRSSTSTDDRSGHPVYRRKNRYDQVRYDAHQHYGNLTRLGKIDISRLDGIGIKEWLFKVEEFFGVDFTLQI
MDVRQRLISSMVISLGLTIISEGIVLIGIASLLHISLFFIFPALVIFWLFQWIISPYVVGRGGYEVSPNDPQYGWLYNLVRRIAEESKIKPPRVFVIDAPYPNAFAYGNRLGGMRVGITLPLLNILDVDELTAVIAHEVGHIKHRDVEIGMTIGLIPTVLGYISTLLMNFGYLALFLAADEIELLFAIAALAIGFVIFVVTFILQIFVLWFNRLRESYADYNSFLVLGEGSKALATALAKIEIYMQNIRIDPFTGIIVTAPPVKVEEKDPHLLVEQWLRTKVSAFKDILSTHPYPARRAQMIYRLIYGSNI
MDVSFEFEHYQVRLIKSSDAVTIANYFMRNRHHLAPWEPKRSHAFFTPEGWKQRLLQLVELHKHNLAFYFVVVDKNEHKIIGTVSYSNITRFPFHAGHVGYSLDSEYQGKGIMRRAVNVTIDWMFKAQNLHRIMAAYIPRNEKSAKVLAALGFVKEGEAKKYLYINGAWEDHILTSKINDDWKPE
MDWYLKVLKNYVGFRGRARRKEYWMFILVNIIFTFVLGLLDKMLGWQRAGGEGILTTIYGILVFLPWWAVQFRRLHDTDRSAWWALLFLIPFIGWLIIIVFNCQAGTARRKPLWTRSKTGTLKQICSPDV
MDWYVGTEWEDKNRGLAKKVIGLQFTEMDKPTIISTVEFSVNKKATNLGGRPSKYLVSDESATYPQKHSLEMGTSLTAVDCYLELLLQQFVPGETAACSITTKTGERIEFELKLEKIVKNTQVEKLSAAEIYEVALRLKESGVATFKTFPKFAFDYFVRAAKLLITYKPFDKLTKKTNGINGQAVEELFIQIQTNLAACLLQEKRYEHVIYHTQFVETEESPSEKSIYRRALAYYHLKEFAKAQATIERMPNYEEKREFSKLRDNIAVSWKDSKAHYKEVVQRMFS
MDYCYTGDTHEKLFAAYRADEEPFPTQTQMEFPRREHRRPEIDILKRLFFPTCWNAAELVRDELAVLDRLDTLGGLFFAGIRPYSGSDPAETVDAVIDQLPAVRTRLKKDVEAAFKGDPAAKTYMEIIRSYPGFMAILVQRVAHTLYEAGASEYARELTEYAKTETGIDIHPGAEIGDHFFIDHGTGVVIGETTTVGEWVRLYQDVTLGALHFEADESDEHRLKKGYKRHPDIGDHVVIGAGTKVLGAISVGDHVSIGANSWVTDDIPDDTKVYVTDHPTQERKRTN
MDYPNQTSSALFHSSEPLGLNLVDYLRVLLSQYWLIIGIAIGATSLTFGVSLLLPQKFRATATLQIERDVPKVMNVDNLIPVESPLDRDFYQTQYQLLQSRSLARAVIRKMNLGREPMFKPLVDKVLSKVQSLPVNTRNTAIESALIEMMLNSLKIEPILNSRLVYVHFDSHDPTLSAKVANAYAKMFIENNQQRRSNAFSFAMKYLAGRLEQLRIKVDKSERNVVAYSTDEKIVSVGDEKPSLSAQNLSDLNALLASAQNERIRAEASWRQASIGDGLSIPQVLSNLLVQSLRTDQANMVNEYQQKLSMFKPEYPEMQRLKARIKENTKQINAEVFNIRQSLKAQYEAALRQENLLNDRIAVLEKDELDLKTRLIRYNLLEREAETDRQLYDALLQRYKEISVLGDVGSNNVTVVDAADIPSRPISPNLLMNTILGGIFGVFLGLTVAMVRYSMHGAKRINVMSVE
MEAFTFNTTELILLSATGVLLIIQLIYYLGLYNRIHTHNLAVGKDEVHFGRELPPLSVVICARNESENLRRNLPTILKQDYPDFEVIVINDGSTDESEDLLSALEEEYPNLYHSFTPDSARYISRKKLALTLGIKASKHDWLVFTEADCAPVSNQWLRRMARNFTSSTDIVLGYSGYERGKGWLHKRASFDSLFTSLRYLGFALAGKPYMGIGRNLAYRKELFFKVKGFSTHLNMQRGEDDLFINQVANENNTRVETSPDAVIRMQPVERYKDWKEEKVSYMATSRFYKGSQRWLLGLETGTRLLFYAACLVGIVFGILSFHWLVVGLSLLLWFVRYSVQAYVINKTAGEMGDNRSYYFTLPVFDIIRPLQTLKLKLYRLYRGKGDFMRR
MEAKKYQAFWRGAIILTIASFVTKVLSAFYRIPYQNIAGDVGFYIYQQIYPFYGFCLILATYGFPVIISKMVAERLERGKQKEAEEIICVSFWFLLGIGFIGFFTLFFGAETIAVAMGDIHLDKLLRVISFSFLLMPFLSVARGYFQGFNNMMPTAVSQVIEQTIRVSIIVFLSLFLIAHGFDLYTVGAGAMLGSIAGGLIGIIVLILYMRQDFRSIFFKSAARIKGKRKIVKILFWQGLAICVSNLVLIFIQMADSVSFYSLLIGAGEQAENAKVLKGVYDRSIPLMQLGTVVTTSFSLSLIPIITAAKERGDLSFIQEKVKLAMKITFVIGLAAAIGLTCIIQPTNIMLFENSDGSDVLSILSLSILFSSLSITTASILQGLGQTFKPALFVVFAGCLKLALNYIFMPYFGVKGAAFATLCALIIISGLNSLLLTRAVSGSLINKRNMLGIVISGICMGFVLMMFTRVLQMSGLVINTEHRGSATLEALLGVAIGGLTYMFFILKLRVFTKKELGTVMKQEKKEGSLKKSG
MEALAMAGVDYQEWGLSIEEWELQESVVPLHLLADDFKEEEQEEDHQDNDDDDRVLDGLAVKQSVTRDIRASVGKFIEQSMSHMIVHLKQLKFLTLLLENFLFTHVLDFLL
MEATKERVGLLDTILPPALADAGLEDCALPPESIQEAFRKAANAVKSRAASIFDHEEEDGCLADPIPETADKIIVGGDNERDTGPCLAGKGIEKLAESKQAGDLVVAGEGEEGKSCVDGLKDLDVEGIERSSEKKDQSDEDEEEEMKPILVEGFV
MEDGVTPPLLITEKDTTMIRVKEEVKKQLWLSAPLIGVSLLQYSLQVISVMFVGHLGSLPLSAASIATSFASVTGFTFLLGTASALETLCGQAYGAKLYGKLGIQMQRAMFVLLILSVPLSIIWANTEQILVLVHQDKSIASVAGSYAKYMIPSLFAYGLLQCINRFLQAQNNVFPVFVCSGITTCLHLLLCWLFVLKTGLGYRGAALAISVSYWFNVILLSCYVKFSPSCSHSWTGFSKEAFQELYDFSKIAFPSAVMVCLELWSFELLVLASGLLPNPVLETSVLSICLNTSLTIWQISVGLGGAASIRVSNELGAGNPQVAKLAVYVIVGIAVAEGIVVVTVLLSIRKILGHAFSSDPKIIAYAASMIPIVACGNFLDGLQCVLSGVARGCGWQKIGACVNLGSYYLVGVPLGLLLGFHFHIGGRGLWLGIVTALSVQVLCLSLVTIFTNWDKEAKKATNRVGSSDDKDGDVQ
